Test results: US20150086555A1 (THERACLONE SCIENCES, published 2015)

B1: TCN-556 (5089_K12) (antibody, V domains shown)
VH: QVQLVQSGAEVKKPGASVKVSCKASGYTFIGYDMHWVRQAPGQGLEWMGWINAKRGGTNYAQKFQGRVTMTRDTSISTAYMELNSLRSDDTAVYYCARGVGSRTTIFGVLNPEFDYWGQGTLVTVSS
VL: QSALTQPPSASGSPGQSVTISCTGSSSDVGGYDYVSWYQQHPGKAPKLLIYEVTKRPSGVPDRFSGSKSGNTASLTVSGLQAEDEADYYCSSYAGNYNHVFGPGTKVTVL
B2: TCN-538 (3206_O17) (antibody, V domains shown)
VH: QITLKESGPTLVKPTQTLTLTCVFSGFSLSITGVRVGWIRQPPGKALEWLALISWDDEKHYSPSLQSRLTITKDTSKNQVVLTMTNLDPVDTATYYCARSTDRGHVLRYFGWMLPGDAFDVWGQGTMVTVSS
VL: DIVMTQSPDFLPVSLGERATINCKSSQRVLYSSNNKNYLAWYQLKPGQPPKLIIYWASTRESGVPDRFSGSGSGTEFTLTISSLQAEDVAVYYCQQYYSRPYTFGQGTKLEIK
B3: TCN-553 (5261_C18) (antibody, V domains shown)
VH: QVQVVQSGTEVKKPGSSVKVSCQTSGGRFMSYAITWVRQAPGQGLEWMGGIVPVFGTANYAQKFQGRVTITTDDSTRTAYMELSSLRSEDTAVYYCGFRYGSGYGFDSWGQGTLVTVSS
VL: EIVLTQSPGTLSLSPGERATLSCRASQSVSSSYLAWYQKKPGQAPRLLIYGASTRATGIPDRFTGSGSGTDFTLSISRLEPEDFAVYYCQHFGTSVFTFGGGTKVEIK
B4: TCN-550 (5096_F06) (antibody, V domains shown)
VH: QVQLQESGPGLVKPSETLSLTCTVSGASINSHYWSWIRQPPGKGLEWIGYVYYSGSTTYNPSLKSRVTLSVDTSKNQFSLNLSSVTAADTAFYYCARHPYDVLTGSGDWFDPWGQGTLVTVSS
VL: SYVLTQAPSVSVAPGQTARITCGGNAIGSKKVHWYQHKAGQAPVLVVYDDTDRPSGIPERFSGSNSWSTATLTINRVEAGDEADYYCQVWDFTIDHVVFGGGTKLTVL
B5: TCN-534 (5249_B02) (antibody, V domains shown)
VH: QVQLVQSGAEVKKPGSSVKVSCRESGGTFNGYTITWVRQAPGQGLEWMGGIIPMMGTVNYAQKLQGRVTITTDYFTKTAYMDLNNLRSEDTAMYYCVKIRYTGQQLLWGQGTLVTVSS
VL: DIQMTQSPSTLSASIGDRVTITCRASQSIASWLAWYQQKPGKAPKLLIYEAVNLESGVPSRFSGSGSGTDFTLTISSLQPDDFATYFCQHYGTISQTFGGGTKVEIK
B6: TCN-549 (5092_P04) (antibody, V domains shown)
VH: QVQLVQSGAEVKKPGASVKVSCKASGYTFTGYYMHWVRQAPGQGLEWMGWINPNSGDTNYAQKFQGRVTMTRDTSITTAYMELSSLRSDDTAVYYCARDSPYSSSWSFFDYWGQGPLVTVSS
VL: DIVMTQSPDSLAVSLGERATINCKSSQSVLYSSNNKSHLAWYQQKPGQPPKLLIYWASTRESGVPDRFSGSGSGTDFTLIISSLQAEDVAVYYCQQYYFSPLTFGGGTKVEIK
B7: TCN-536 (5095_N01) (antibody, V domains shown)
VH: QVQLQQWGAGLLKPSETLSLTCAVYGGSFSVSGYYWSWIRQPPGRGLEWIGEISHGGSTNYNPSLKSRVTISVDTTKNQFSLRLSSVTAADTAVYYCARGTDPDTEVYCRVGNCAAFDYWGQGSLVTVSS
VL: EIILAQSPGTLSLSPGERATLSCRASQFVSTRSLAWYQQRPGQAPRLLIYGASSRATGIPDRFSGSGSGTDFTLTISRLEPEDFAVYYCQHYGYSPRYAFGQGSKVEIK
B8: TCN-547 (5092_F11) (antibody, V domains shown)
VH: QVQLQESGPGLVKPSQTLSLTCTVSGDSISSVDHYWSWIRQHPVKGLEWIGFMYYSASTYYNPSLKSRVTISTDTSKNQFSLRLSSVTAADTAVYYCARGTCAGDCSLHYYYYGLDVWGQGRTVTVSS
VL: DIQMTQSPSSLSASVGDRVTITCRASQSISSYLNWYQHKPGKAPKVLMYAVSILQSGVPSRFSGSGSGADFTLTISSLQPEDFATYYCQQSYSSPLTFGGGTKVEIK
B9: TCN-537 (3194_D21) (antibody, V domains shown)
VH: QVQLQQWGSGLLKPSETLSLTCAVYGGSFRDDYWTWIRQPPGKGLEWIGEINHSGRTNYNPSLKSRVTISVDTSLKQFSLKVISVTAADTAVYYCARGTSHVSRYFDWLPPTNWFDPWGQGTQVTVSS
VL: DIVLTQSPGTLSLSPGERATLSCRASQSVSSSYLAWYQQKPGQAPRLVMYGAATRATGIPDRFSGSGSGPDFTLTISRLEPEDFAMYYCQQYGNSPITFGQGTRLEIK
B10: TCN-557 (5081_A04) (antibody, V domains shown)
VH: QVQLVQSGAEVKKPGASVKVSCKASGHTFTGYYIHWVRQAPGQGLEWMGWINPDSGATSSAQNFQGRVTMTGDTSSSTAYMELSRLSFDDTAVYYCARVLFTSPFDFWGEGTLVTVSS
VL: QAVVTQEPSLAVSPGGTVTLTCGSSTGAVTRGHYPYWFQQKPGQAPRALIYDSAGNRHSWTPARFSGSLLGGKAALTLSGAQPEDEAEYYCLLSYSGVWVFGGGTKLTVL
B11: TCN-540 (5060_F05) (antibody, V domains shown)
VH: QVQLVQSGGGVVQPGRSLRLSCAASGFTFSSYAMHWVRQAPGKGLEWVAIISYDGNDQYYTDSVKGRFTISRDSSKVYLQMHRLRPEDTAVYYCAKEFETSGYFHGSFDYWGQGILVTVSS
VL: QSALTQPASVSGSPGQSITISCTGTSSDVGGYNYVSWYQQHPGKAPKLLIYEVTNWPSGVSNRFSGSKSGNTASLTISGLQAEDEADYYCSSYAGSSTWVFGGGTRVTVL
B12: TCN-535 (5246_P19) (antibody, V domains shown)
VH: QVQLVQSGSEVKKPGTSVKVSCTASGSVFTNYGISWVRQAPGQGLEWMGGIIPLFGAAKYAQKFQGRVTITADESTKTVYMELSRLTSKDTAIYFCAKAPRVYEYYFDQWGQGTPVTVSS
VL: EIVLTQSPGTLSLSPGERATLSCRASQSVSSSQLAWYQQKPGQAPRLIIYGASTRATGIPDRFSGSGSGTDFTLTIGRLEPEDFAVFFCQQYSTSPPTFGQGTKVDFK
B13: TCN-548 (5092_P01) (antibody, V domains shown)
VH: QVQLQESGPGLVKPSETLSLTCTVSSGPMSDYYWSWIRQPPGKGLEWIGHVSVSHGGRTKSNPSVMSRVTISVETSKNQFSLKLTSVTAADTAVYYCARLNYYDRSGYHSPDGPSNNWFDPWGQGTLVTVSS
VL: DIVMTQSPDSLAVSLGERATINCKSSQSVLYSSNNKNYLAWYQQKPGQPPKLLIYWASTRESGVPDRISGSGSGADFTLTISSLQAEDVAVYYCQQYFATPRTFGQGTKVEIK
B14: TCN-539 (5056_A08) (antibody, V domains shown)
VH: QVQLVESGGGVVQPGRSLRLSCAASEITFITYAMHWVRQAPGKGLEWVALISDDGSNKFYADSVKGRFTISRDNSKNTLYLQMNSLRAEDTAAYYCAREGVYFDSGTYRGYFDYWGQETLVTVSS
VL: EIVLTQSPATLSLSPGERATLSCRASQSVSSYLAWYQQKPGQAPRLLIYDASNRATGIPARFSGSGSGTDFTLTISSLEPEDFAVYYCQQRSHWPPITFGQGTRLEIK
B15: TCN-504 (3251_K17) (antibody, V domains shown)
VH: QVQLQESGPGLVKPSETLSLTCAVSGVSISNIDFYWGWIRQPPGKGLEWIGNIYYTGITFYNPSLSSRVAISIDTSKNQFSLTLTSVTAADTAMYYCARHYGDSEAINDAFDIWGQGTMLTVSS
VL: EIVMTQSPATLSVSPGERATLSCRASQSVGNSLAWYQQRPGQAPRLLIYGASTRATGIPPRFSGSGSGTEFTLTISSLQTEDFAVYYCQQYINWRPLSFGGGTKVEIK
B16: TCN-552 (5249_I23) (antibody, V domains shown)
VH: QVQVVQSGAEVKKPGSSVRVSCQASGGTFMNYAIIWVRRAPGQGLEWMGGIIPVFPTPNYAQMFQGRVTISTDESRSTSFLELTNLRYEDTAVYYCARRIYHGGNSGFDFWGQGTLVTVSS
VL: EIVLTQSPATLSLSPGERATLSCRASQSVGNYLAWYQQKPGQAPRLLIYDSSNRAPGIPARFSGSGSGTDFTLTISSLAPEDFAVYYCQQRSKWPPMYSFGHGTKLEIK

Legend:
[1] = target: hemagglutinin (HA) of influenza A/Japan/305/57 (H2N2) on whole virions (Influenza A virus A/Japan/305/1957(H2N2), UniProt P03451 16-562); assay: ELISA; BCC supernatant on coated inactivated whole virions
[2] = target: hemagglutinin on live influenza A virus, A/California/4/09 H1N1 (Influenza A virus …); assay: cell-based or functional assay

Binder	ELISA virus binding (OD450) [1] [OD450]	% Neutralization [2] [%]
B1	2.41	
B2		66
B3	2.54	
B4	0.06	
B5		96.4
B6	0.08	
B7		18.8
B8	0.07	
B9		71
B10	2.7	
B11		0
B12		97.3
B13	0.09	
B14		0
B15		0
B16	0.71	
